Values of other authors as cited in publication PMC5427998 (Chemical Science, 2017).
Bridges are numbered along the chain shown (N, C = ends). Where no end group is shown, it is not given here.

Conditions: 95 °C

Substance: Microcin J25 (GGAGHVPEYFVGIGTPISFYG; lactam N-8; UniProt Q9X2V7 38-58, looked up) [MccJ25]
- thermal denaturation / retention of threaded structure: did not denature
